According to EP0799891A1:

Columns and labels:
[1] = biological target: fusion protein consisting of the extracellular region of the human Fas antigen and the extracellular region of the mouse interleukin 3 receptor (encoded by phFas-AIC2) (human; mouse) (UniProt P25445); assay: ELISA; plate coated with COS-1 supernatant holding the human Fas ECD-mouse IL-3 receptor ECD fusion; detection with peroxidase-labelled rat anti-mouse IgM; PBS blank 0.104
[2] = biological target: human Fas antigen on human lymphocyte cell line HPB-ALL (human) (UniProt P25445); assay: cell-based or functional assay

Row | OD405 - OD492 (OD405 - OD492) [1] | ED50 [2] | Substance | OD590 - OD620 (MTT assay, viable HPB-ALL cells) (OD590 - OD620) [2] | activity (cytotoxicity, ED50 test) relative to CH11 and supernatant [F] [2]
1 | 0.107 | – | CH11 J chain alone, COS-1 culture supernatant of cells transfected with pJEX004 | 0.883 | –
2 | 0.445 | 0.0212 µg/mL | mouse anti-human Fas monoclonal antibody CH11 (IgM), purified from hybridoma culture supernatant | – | –

The remaining lines, values behind:

Row | Substance | OD405 - OD492 (OD405 - OD492) [1] | ED50 [2] | OD590 - OD620 (MTT assay, viable HPB-ALL cells) (OD590 - OD620) [2] | activity (cytotoxicity, ED50 test) relative to CH11 and supernatant [F] [2]
3 | CH11 H chain alone, COS-1 culture supernatant of cells transfected with pHEX126 | 0.109 | – | 0.876 | –
4 | CH11 L chain alone, COS-1 culture supernatant of cells transfected with pLEX004 | 0.135 | – | 0.887 | –
5 | recombinant CH11 H chain + L chain + J chain product in COS-1 culture supernatant [F] (pHEX126, pLEX004 and pJEX004) (antibody) | 0.202 | 0.0229 µg/mL | 0.242 | –
6 | recombinant CH11 H chain + L chain product in COS-1 culture supernatant [E] (pHEX126 and pLEX004), without J chain (antibody) | 0.33 | 0.0045 µg/mL | 0.176 | 5 fold
